Laboratory results: article PMC6770189, “Multipoint TvDAAO Mutants for Cephalosporin C Bioconversion” (International Journal of Molecular Sciences, 2019)
Residue numbers refer to the chain shown, from its start. In names and notes the source's numbering stands.

B1: TvDAAO (Trigonopsis variabilis; C108F/C298Q/E32R/F33D/F54S/M156L) (protein)
chain: MAKIVVIGAGVAGLTTALQLLRKGHEVTIVSRDTPGDLSIGYTSPWAGANWLTSYDGGKLADYDAVSYPILRELARSSPEAGIRLISQRSHVLKRDLPKLEVAMSAIFQRNPWFKNTVDSFEIIEDRSRIVHDDVAYLVEFRSVCIHTGVYLNWLLSQCLSLGATVVKRRVNHIKDANLLHSSGSRPDVIVNCSGLFARFLGGVEDKKMYPIRGQVVLVRNSLPFMASFSSTPEKENEDEALYIMTRFDGTSIIGGCFQPNNWSSEPDPSLTHRILSRALDRFPELTKDGPLDIVREQVGHRPGREGGPRVELEKIPGVGFVVHNYGAAGAGYQSSYGMADEAVSYVERALTRPNL
notes: FAD-containing; no tag mentioned
B2: TvDAAO (Trigonopsis variabilis) (protein)
chain: B1 chain with R32E, D33F, S54F, F108C, L156M, Q298C
notes: as for B1
B3: TvDAAO (Trigonopsis variabilis; C108F/E32R/F33D) (protein)
chain: B1 chain with S54F, L156M, Q298C
notes: as for B1
B4: TvDAAO (Trigonopsis variabilis; C108F/E32R/F33D/F54S) (protein)
chain: B1 chain with L156M, Q298C
notes: as for B1
B5: TvDAAO (Trigonopsis variabilis; C108F/C298G/E32R/F33D/F54S/M156L) (protein)
chain: B1 chain with Q298G
notes: as for B1
B6: TvDAAO (Trigonopsis variabilis; C108F/F54S/M156L) (protein)
chain: B1 chain with R32E, D33F, Q298C
notes: as for B1
B7: TvDAAO (Trigonopsis variabilis; C108F/C298N/E32R/F33D/F54S/M156L) (protein)
chain: B1 chain with Q298N
notes: as for B1
B8: TvDAAO (Trigonopsis variabilis; C108F/E32R/F33D/F54S/M156L) (protein)
chain: B1 chain with Q298C
notes: as for B1

Assays:
TvDAAO = target: T1, TvDAAO (Trigonopsis variabilis, UniProt Q99042); assay: horseradish peroxidase / ABTS coupled assay, […] nm; assay type: biochemical; conditions: 0.05 M potassium phosphate pH 8.0, 30 °C, air saturated; read-out: wt-TvDAAO / KM
T1 construct: gene DAO1; FAD-containing; no tag mentioned
T1 sequence (Q99042 whole entry): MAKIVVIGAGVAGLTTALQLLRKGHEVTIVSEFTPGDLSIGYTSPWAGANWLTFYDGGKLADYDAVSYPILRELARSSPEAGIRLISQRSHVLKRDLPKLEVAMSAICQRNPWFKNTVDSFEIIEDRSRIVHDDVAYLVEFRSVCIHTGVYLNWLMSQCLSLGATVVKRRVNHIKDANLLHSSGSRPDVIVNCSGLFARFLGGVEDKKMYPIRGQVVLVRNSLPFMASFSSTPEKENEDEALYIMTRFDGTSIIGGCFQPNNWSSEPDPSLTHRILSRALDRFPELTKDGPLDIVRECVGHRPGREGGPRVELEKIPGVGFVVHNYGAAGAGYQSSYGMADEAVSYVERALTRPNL

[1] = substrate: [H][C@]12SCC(COC(C)=O)=C(C(=O)O)N1C(=O)[C@H]2NC(=O)CCC[C@@H](N)C(=O)O; assay: CPC consumption by HPLC, initial rates; assay type: biochemical, Trigonopsis variabilis; conditions: 0.1 M potassium phosphate pH 8.0, 30 °C, air saturated
Excerpt: CPC consumption by HPLC, initial rates on TvDAAO

purified protein [2] = substrate: CC(C)C[C@@H](N)C(=O)O; assay: purified protein; conditions: 0.05 M potassium phosphate pH 8.0, 30 °C, air saturated
purified protein [3] = substrate: NC(=O)C[C@@H](N)C(=O)O; assay: purified protein; conditions: 0.05 M potassium phosphate pH 8.0, 30 °C, air saturated
purified protein [4] = substrate: C[C@@H](N)C(=O)O; assay: purified protein; conditions: 0.05 M potassium phosphate pH 8.0, 30 °C, air saturated
purified protein [5] = substrate: CC(C)[C@@H](N)C(=O)O; assay: purified protein; conditions: 0.05 M potassium phosphate pH 8.0, 30 °C, air saturated
purified protein [6] = substrate: CSCC[C@@H](N)C(=O)O; assay: purified protein; assay type: biochemical, Trigonopsis variabilis; conditions: 0.05 M potassium phosphate pH 8.0, 30 °C, air saturated

Km (TvDAAO) | Molecule | Km [1] | kcat [1] | kcat/Km [1] | also measured
11000 µM | C[C@H](O)[C@@H](N)C(=O)O [D-Thr] |  |  |  | 
490 µM | N[C@H](Cc1c[nH]c2ccccc12)C(=O)O [D-Trp] |  |  |  | 
37000 µM | N[C@H](CO)C(=O)O [D-Ser] |  |  |  | 
460 µM | CSCC[C@@H](N)C(=O)O [D-Met] |  |  |  | 
370 µM | N[C@H](Cc1ccccc1)C(=O)O [D-Phe] |  |  |  | 
 | B1 | 1.4 ± 0.3 mM | 68 ± 0.5 s⁻¹ | 50000 ± 9000 M⁻¹ s⁻¹ | 
 | B2 | 1.4 ± 0.4 mM | 26 ± 3 s⁻¹ | 18000 ± 5000 M⁻¹ s⁻¹ | Km (purified protein [2]): 0.40 mM; kcat (purified protein [2]): 29 s⁻¹; Km (purified protein [3]): 23 mM; kcat (purified protein [3]): 62 s⁻¹; Km (purified protein [4]): 17 mM; kcat (purified protein [4]): 109 s⁻¹; Km (purified protein [5]): 14 mM; kcat (purified protein [5]): 85 s⁻¹
 | B3 | 1.15 ± 0.08 mM | 25.5 ± 1.4 s⁻¹ | 22000 ± 2000 M⁻¹ s⁻¹ | 
 | B4 | 1.9 ± 0.4 mM | 88 ± 10 s⁻¹ | 45000 ± 11000 M⁻¹ s⁻¹ | 
 | B5 | 0.8 ± 0.2 mM | 65 ± 5 s⁻¹ | 79000 ± 15000 M⁻¹ s⁻¹ | 
 | B6 | 1.9 ± 0.6 mM | 119 ± 7 s⁻¹ | 60000 ± 20000 M⁻¹ s⁻¹ | 
 | B7 | 2.9 ± 0.5 mM | 121 ± 15 s⁻¹ | 42000 ± 8000 M⁻¹ s⁻¹ | Km (purified protein [6]): 1.4 mM; kcat (purified protein [6]): 41 s⁻¹
 | B8 | 1.6 ± 0.3 mM | 106 ± 9 s⁻¹ | 66000 ± 12000 M⁻¹ s⁻¹ | 

Molecule | Km (TvDAAO) | Km [1] | kcat [1] | kcat/Km [1] | also measured
N[C@H](Cc1ccc(O)cc1)C(=O)O [D-Tyr] | 450 µM |  |  |  | 
NCCCC[C@@H](N)C(=O)O [D-Lys] | 29000 µM |  |  |  | 
